Experimental findings from patent publication US20260226095A1 (GLYTECH, published 2026) are described below.

In this experiment the target is hPSMA (purified and soluble antigen) (human (printed as hPSMA), UniProt Q04609 44-750). Nature of the experiment: SPR, Biacore T200, standard kinetics, antigen immobilized on CM5 chip.
Chain of hPSMA (purified and soluble antigen) (Q04609 44-750): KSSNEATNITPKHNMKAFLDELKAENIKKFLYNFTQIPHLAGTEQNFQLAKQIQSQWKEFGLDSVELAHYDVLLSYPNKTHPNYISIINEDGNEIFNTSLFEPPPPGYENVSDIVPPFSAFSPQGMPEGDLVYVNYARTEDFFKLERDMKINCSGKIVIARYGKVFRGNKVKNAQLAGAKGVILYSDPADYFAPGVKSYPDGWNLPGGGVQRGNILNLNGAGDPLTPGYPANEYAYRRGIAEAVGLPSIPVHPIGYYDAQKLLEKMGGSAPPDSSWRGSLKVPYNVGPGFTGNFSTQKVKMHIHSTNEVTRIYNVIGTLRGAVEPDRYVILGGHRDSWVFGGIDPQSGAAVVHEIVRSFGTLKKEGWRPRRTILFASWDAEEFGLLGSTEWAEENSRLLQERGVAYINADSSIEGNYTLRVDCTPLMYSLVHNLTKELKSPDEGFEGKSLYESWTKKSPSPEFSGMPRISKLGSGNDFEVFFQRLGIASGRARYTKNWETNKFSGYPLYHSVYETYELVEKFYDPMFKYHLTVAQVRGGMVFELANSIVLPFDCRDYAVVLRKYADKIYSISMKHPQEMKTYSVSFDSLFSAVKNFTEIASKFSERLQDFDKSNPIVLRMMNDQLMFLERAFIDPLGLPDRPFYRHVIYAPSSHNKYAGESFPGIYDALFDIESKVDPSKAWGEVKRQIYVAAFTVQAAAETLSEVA

B1: scFv Ab1 (D2B) of synthesis (scFv)
scFv: EVKLQESGPGLVKPSQSLSLTCSVTGYSITSGYYWNWIRQFPGNKLEWMGSISFDGNNNYNPSLRNRISITRDTSKNQFFLKLNSVTTEDTATYYCAREGDYYGSSFFTYWGQGTLVTVSSGGGGSGGGGSGGGGSALDIVMTQSPASLSASVGETVTLTCGASENIYGALNWYQRKQGKSPQLLIYGATNLADGMSSRFSGSGSGRQYSLKISSLHPDDVATYYCQNVFRTYTFGGGTKLEIKRAAAHHHHHH
modifications: L-pyroglutamic acid (<E) printed at position 1 of segment 1; two disulfide bonds (C22-C96 and C161-C226)
notes: Made by full chemical synthesis, 254 residues ending at H254; also called scFv Ab1 synthesis; scFv D2B
In turn, B1 gave a Kd of 12 nM.

B2: scFv Ab1 RREF (scFv)
scFv: B1 scFv
notes: Produced in a prokaryotic system; Contains two tags (Myc and His); not shown: Myc tag present in RREF in addition to the His tag
Molecule B2 registered a Kd of 27 nM.
